Data from paper PMC12416549 (2024).

T1: TNFR1 (Homo sapiens, UniProt P19438)
T1 chain: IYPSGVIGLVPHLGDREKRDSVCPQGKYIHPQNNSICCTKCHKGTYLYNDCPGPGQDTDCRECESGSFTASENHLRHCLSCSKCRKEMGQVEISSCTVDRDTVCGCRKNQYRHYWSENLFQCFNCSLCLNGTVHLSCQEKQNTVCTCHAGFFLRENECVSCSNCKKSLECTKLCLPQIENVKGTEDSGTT


Target: T1, TNFR1
Test: yeast display SC50

Row | Binder | apparent Kd (screen)
1 | D53W (designed binder) SMEEEVEKAAKEYEKKKKEAIEKHLEKLKAKDKEAAERFLKELEEAAKEYAKWEAKTMSEEEAKRRAKKYKEKVLLSELSEEEQKEIKEAEEKLVRTILKYVEEAAK | 10.4 nM
2 | L28V (designed binder) SMEEEVEKAAKEYEKKKKEAIEKHLEKVKAKDKEAAERFLKELEEAAKEYAKDEAKTMSEEEAKRRAKKYKEKVLLSELSEEEQKEIKEAEEKLVRTILKYVEEAAK | 0.79 nM
3 | A46K (designed binder) SMEEEVEKAAKEYEKKKKEAIEKHLEKLKAKDKEAAERFLKELEEKAKEYAKDEAKTMSEEEAKRRAKKYKEKVLLSELSEEEQKEIKEAEEKLVRTILKYVEEAAK | 4.39 nM
4 | E7F (designed binder) SMEEEVFKAAKEYEKKKKEAIEKHLEKLKAKDKEAAERFLKELEEAAKEYAKDEAKTMSEEEAKRRAKKYKEKVLLSELSEEEQKEIKEAEEKLVRTILKYVEEAAK | 20.2 nM
5 | E19L (designed binder) SMEEEVEKAAKEYEKKKKLAIEKHLEKLKAKDKEAAERFLKELEEAAKEYAKDEAKTMSEEEAKRRAKKYKEKVLLSELSEEEQKEIKEAEEKLVRTILKYVEEAAK | 0.49 nM
6 | E78T (designed binder) SMEEEVEKAAKEYEKKKKEAIEKHLEKLKAKDKEAAERFLKELEEAAKEYAKDEAKTMSEEEAKRRAKKYKEKVLLSTLSEEEQKEIKEAEEKLVRTILKYVEEAAK | 1.27 nM
7 | L75D (designed binder) SMEEEVEKAAKEYEKKKKEAIEKHLEKLKAKDKEAAERFLKELEEAAKEYAKDEAKTMSEEEAKRRAKKYKEKVDLSELSEEEQKEIKEAEEKLVRTILKYVEEAAK | 5.84 nM
8 | A46L (designed binder) SMEEEVEKAAKEYEKKKKEAIEKHLEKLKAKDKEAAERFLKELEELAKEYAKDEAKTMSEEEAKRRAKKYKEKVLLSELSEEEQKEIKEAEEKLVRTILKYVEEAAK | 12.5 nM
9 | E4W (designed binder) SMEWEVEKAAKEYEKKKKEAIEKHLEKLKAKDKEAAERFLKELEEAAKEYAKDEAKTMSEEEAKRRAKKYKEKVLLSELSEEEQKEIKEAEEKLVRTILKYVEEAAK | 1.54 nM
10 | S80I (designed binder) SMEEEVEKAAKEYEKKKKEAIEKHLEKLKAKDKEAAERFLKELEEAAKEYAKDEAKTMSEEEAKRRAKKYKEKVLLSELIEEEQKEIKEAEEKLVRTILKYVEEAAK | 1.69 nM
11 | K88P (designed binder) SMEEEVEKAAKEYEKKKKEAIEKHLEKLKAKDKEAAERFLKELEEAAKEYAKDEAKTMSEEEAKRRAKKYKEKVLLSELSEEEQKEIPEAEEKLVRTILKYVEEAAK | 7.78 nM
12 | K71R (designed binder) SMEEEVEKAAKEYEKKKKEAIEKHLEKLKAKDKEAAERFLKELEEAAKEYAKDEAKTMSEEEAKRRAKKYREKVLLSELSEEEQKEIKEAEEKLVRTILKYVEEAAK | 0.593 nM
13 | K64S (designed binder) SMEEEVEKAAKEYEKKKKEAIEKHLEKLKAKDKEAAERFLKELEEAAKEYAKDEAKTMSEEEASRRAKKYKEKVLLSELSEEEQKEIKEAEEKLVRTILKYVEEAAK | 0.718 nM
14 | E61M (designed binder) SMEEEVEKAAKEYEKKKKEAIEKHLEKLKAKDKEAAERFLKELEEAAKEYAKDEAKTMSEMEAKRRAKKYKEKVLLSELSEEEQKEIKEAEEKLVRTILKYVEEAAK | 1.27 nM
15 | E34C (designed binder) SMEEEVEKAAKEYEKKKKEAIEKHLEKLKAKDKCAAERFLKELEEAAKEYAKDEAKTMSEEEAKRRAKKYKEKVLLSELSEEEQKEIKEAEEKLVRTILKYVEEAAK | 1.16 nM
16 | E103Y (designed binder) SMEEEVEKAAKEYEKKKKEAIEKHLEKLKAKDKEAAERFLKELEEAAKEYAKDEAKTMSEEEAKRRAKKYKEKVLLSELSEEEQKEIKEAEEKLVRTILKYVYEAAK | 1.86 nM
17 | K31G (designed binder) SMEEEVEKAAKEYEKKKKEAIEKHLEKLKAGDKEAAERFLKELEEAAKEYAKDEAKTMSEEEAKRRAKKYKEKVLLSELSEEEQKEIKEAEEKLVRTILKYVEEAAK | 0.653 nM
18 | E78C (designed binder) SMEEEVEKAAKEYEKKKKEAIEKHLEKLKAKDKEAAERFLKELEEAAKEYAKDEAKTMSEEEAKRRAKKYKEKVLLSCLSEEEQKEIKEAEEKLVRTILKYVEEAAK | 0.49 nM
19 | E104W (designed binder) SMEEEVEKAAKEYEKKKKEAIEKHLEKLKAKDKEAAERFLKELEEAAKEYAKDEAKTMSEEEAKRRAKKYKEKVLLSELSEEEQKEIKEAEEKLVRTILKYVEWAAK | 0.869 nM
20 | L76I (designed binder) SMEEEVEKAAKEYEKKKKEAIEKHLEKLKAKDKEAAERFLKELEEAAKEYAKDEAKTMSEEEAKRRAKKYKEKVLISELSEEEQKEIKEAEEKLVRTILKYVEEAAK | 1.16 nM
21 | K69P (designed binder) SMEEEVEKAAKEYEKKKKEAIEKHLEKLKAKDKEAAERFLKELEEAAKEYAKDEAKTMSEEEAKRRAKPYKEKVLLSELSEEEQKEIKEAEEKLVRTILKYVEEAAK | 22.2 nM
22 | E7T (designed binder) SMEEEVTKAAKEYEKKKKEAIEKHLEKLKAKDKEAAERFLKELEEAAKEYAKDEAKTMSEEEAKRRAKKYKEKVLLSELSEEEQKEIKEAEEKLVRTILKYVEEAAK | 2.73 nM
23 | E3K (designed binder) SMKEEVEKAAKEYEKKKKEAIEKHLEKLKAKDKEAAERFLKELEEAAKEYAKDEAKTMSEEEAKRRAKKYKEKVLLSELSEEEQKEIKEAEEKLVRTILKYVEEAAK | 0.653 nM
24 | E83M (designed binder) SMEEEVEKAAKEYEKKKKEAIEKHLEKLKAKDKEAAERFLKELEEAAKEYAKDEAKTMSEEEAKRRAKKYKEKVLLSELSEEMQKEIKEAEEKLVRTILKYVEEAAK | 0.446 nM

Now from value to binder:

Row | apparent Kd (screen) | Binder
25 | 0.49 nM | L40Q (designed binder) SMEEEVEKAAKEYEKKKKEAIEKHLEKLKAKDKEAAERFQKELEEAAKEYAKDEAKTMSEEEAKRRAKKYKEKVLLSELSEEEQKEIKEAEEKLVRTILKYVEEAAK
26 | 0.446 nM | K48E (designed binder) SMEEEVEKAAKEYEKKKKEAIEKHLEKLKAKDKEAAERFLKELEEAAEEYAKDEAKTMSEEEAKRRAKKYKEKVLLSELSEEEQKEIKEAEEKLVRTILKYVEEAAK
27 | 0.446 nM | T97Q (designed binder) SMEEEVEKAAKEYEKKKKEAIEKHLEKLKAKDKEAAERFLKELEEAAKEYAKDEAKTMSEEEAKRRAKKYKEKVLLSELSEEEQKEIKEAEEKLVRQILKYVEEAAK
28 | 0.446 nM | A55M (designed binder) SMEEEVEKAAKEYEKKKKEAIEKHLEKLKAKDKEAAERFLKELEEAAKEYAKDEMKTMSEEEAKRRAKKYKEKVLLSELSEEEQKEIKEAEEKLVRTILKYVEEAAK
29 | 1.05 nM | F39W (designed binder) SMEEEVEKAAKEYEKKKKEAIEKHLEKLKAKDKEAAERWLKELEEAAKEYAKDEAKTMSEEEAKRRAKKYKEKVLLSELSEEEQKEIKEAEEKLVRTILKYVEEAAK
30 | 10.4 nM | E49L (designed binder) SMEEEVEKAAKEYEKKKKEAIEKHLEKLKAKDKEAAERFLKELEEAAKLYAKDEAKTMSEEEAKRRAKKYKEKVLLSELSEEEQKEIKEAEEKLVRTILKYVEEAAK
31 | 1.54 nM | A63W (designed binder) SMEEEVEKAAKEYEKKKKEAIEKHLEKLKAKDKEAAERFLKELEEAAKEYAKDEAKTMSEEEWKRRAKKYKEKVLLSELSEEEQKEIKEAEEKLVRTILKYVEEAAK
32 | 3 nM | V6L (designed binder) SMEEELEKAAKEYEKKKKEAIEKHLEKLKAKDKEAAERFLKELEEAAKEYAKDEAKTMSEEEAKRRAKKYKEKVLLSELSEEEQKEIKEAEEKLVRTILKYVEEAAK
33 | 2.73 nM | R38G (designed binder) SMEEEVEKAAKEYEKKKKEAIEKHLEKLKAKDKEAAEGFLKELEEAAKEYAKDEAKTMSEEEAKRRAKKYKEKVLLSELSEEEQKEIKEAEEKLVRTILKYVEEAAK
34 | 0.539 nM | K29N (designed binder) SMEEEVEKAAKEYEKKKKEAIEKHLEKLNAKDKEAAERFLKELEEAAKEYAKDEAKTMSEEEAKRRAKKYKEKVLLSELSEEEQKEIKEAEEKLVRTILKYVEEAAK
35 | 7.07 nM | F39D (designed binder) SMEEEVEKAAKEYEKKKKEAIEKHLEKLKAKDKEAAERDLKELEEAAKEYAKDEAKTMSEEEAKRRAKKYKEKVLLSELSEEEQKEIKEAEEKLVRTILKYVEEAAK
